Experimental data taken from patent publication US7056679.
Blank lines part the entries; values can stand above or below the binder they belong to.

How the values were obtained:
[1] = target: lactate dehydrogenase (LDH); test: phage ELISA, 405 nm; LDH coated
DGI-2 polypeptide [2] = target: DGI-2 polypeptide (UniProt Q15004); test: phage ELISA, 405 nm; DGI-2 coated
[3] = target: antibody raised against ETAG; test: phage ELISA, 405 nm; anti-E-tag antibody coated
DGI-2 polypeptide [4] = target: DGI-2 polypeptide (UniProt Q15004); test: phage ELISA, 405 nm; DGI-2 signal over LDH signal
DGI-2 polypeptide [5] = target: DGI-2 polypeptide (UniProt Q15004); test: phage ELISA
[6] = target: lactate dehydrogenase (LDH); test: phage ELISA; LDH coated

Sequence of DGI-2 polypeptide (Q15004 whole entry): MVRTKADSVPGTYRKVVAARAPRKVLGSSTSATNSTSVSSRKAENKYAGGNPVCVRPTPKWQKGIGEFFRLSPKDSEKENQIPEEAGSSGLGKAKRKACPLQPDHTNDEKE

B2: DGI-2-40F-3-A4 (peptide, not shown: large carriers)
peptide: WFTHVVEKFAAAGAPVPYPDPLEPRP
DGI-2 (OD) (DGI-2 polypeptide [2]): 1.1 OD
LDH (OD) [1]: 0.8 OD
ETAG (OD) [3]: 6.7 OD
DGI-2/LDH (OD) (DGI-2 polypeptide [4]): 1.3

B7: DGI-2-40F-3-C52 (peptide, not shown: large carriers)
peptide: GLLFTSSPYQCFWVHCTLTMSPLSVLGDLSSTIGRMRASRAAAGAPVPYPDPLEPRP
LDH (OD) [1]: 0.8 OD

B8: DGI-2-20F-PP-H10 (peptide)
peptide: GRAGTSMTELVAWGFVQRVGAAAGAPVPYPDPLEPRP
DGI-2 (OD) (DGI-2 polypeptide [5]): 1.4 OD
DGI-2/LDH (DGI-2 polypeptide [5]): 1.9

B9: DGI9-20M-4-A12 (peptide, not shown: large carriers)
peptide: SRLALSSQHGLSLVAGRRRGGAPVPYPDPLEPR
LDH (ratio over background) [6]: 0.9

B12: DGI-2-20R-4-E5 (peptide, not shown: large carriers)
peptide: LHRLGQSMGGTLDHLQGWGVAAAGAPVPYPDPLEPRP
LDH (OD) [1]: 1.1 OD

B13: DGI-2-20F-3-C3 (peptide, not shown: large carriers)
peptide: FSSVLGLLDRRGVPVVVGEDAAAGAPVPYPDPLEPRP
LDH (OD) [1]: 0.9 OD

B14: DGI9-20M-4-A414 (peptide, not shown: large carriers)
peptide: FLLQDFIMDAGSFVKPIGVGGAPVPYPDPLEPR
LDH (ratio over background) [6]: 1.1

B17: DGI-2-40F-3-B5 (peptide, not shown: large carriers)
peptide: RSRSSSGASGSMLRVQNHMVLGSWMVRQPMGSMTPFHGHGAAAGAPVPYPDPLEPRP
LDH (OD) [1]: 0.9 OD

B19: DGI-2-20F-3-C2 (peptide, not shown: large carriers)
peptide: MAVLPAARDFGGVVQGGVSGAAAGAPVPYPDPLEPRP
LDH (OD) [1]: 1 OD

B23: DGI-2-20C-3-A12 (peptide, not shown: large carriers)
peptide: GEVDCVYALTHRFLSPQVQYHHRPVAAAGAPVPYPDPLEPRP
DGI-2 (OD) (DGI-2 polypeptide [2]): 0.9 OD
LDH (OD) [1]: 0.9 OD
ETAG (OD) [3]: 8.1 OD
DGI-2/LDH (OD) (DGI-2 polypeptide [4]): 1

B25: DGI9-20M-4-A627 (peptide, not shown: large carriers)
peptide: WDWSRFGAQLRGAILGRATGGAPVPYPDPLEPR
LDH (ratio over background) [6]: 0.9

B27: DGI-2-20F-3-C5 (peptide, not shown: large carriers)
peptide: LGNASSLIPFLRSVQESGVRAAAGAPVPYPDPLEPRP
DGI-2 (OD) (DGI-2 polypeptide [2]): 1 OD
LDH (OD) [1]: 0.9 OD
ETAG (OD) [3]: 17.7 OD
DGI-2/LDH (OD) (DGI-2 polypeptide [4]): 1

B29: DGI-2-40F-3-D9 (peptide, not shown: large carriers)
peptide: RRTSADTDQLSRWEGAQAFSSLRSALSERLDSLRPGLPPSAAAGAPVPYPDPLEPRP
LDH (OD) [1]: 0.8 OD

B30: DGI-2-40F-3-A1 (SEQ ID NO: 187) (peptide, not shown: large carriers)
peptide: QYFARGSFQFGLSHVLSAAAAFHLYVFCKRLSRGFGIKDDAAAGAPVPYPDPLEPRP
LDH (OD) [1]: 0.7 OD

B31: DGI-2-40F-3-A24 (peptide, not shown: large carriers)
peptide: RCFQDGRMLALSPTYLIRRSVSPLVVGPLPTPAAAGAPVPYPDPLEPRP
LDH (OD) [1]: 0.9 OD

Second part, the binder after the results:

LDH (OD) [1]: 0.8 OD
B1: DGI-2-40F-3-C7 (peptide, not shown: large carriers)
peptide: HPWVTNMLVFQRPPPPGFWLSDTTPRQRNGLGQVERPSVDAAAGAPVPYPDPLEPRP

LDH (OD) [1]: 0.9 OD
B3: DGI-2-20F-3-B1 (peptide, not shown: large carriers)
peptide: LSRIWRGVIESAREVESRGIAAAGAPVPYPDPLEPRP

DGI-2 (OD) (DGI-2 polypeptide [2]): 1.1 OD
LDH (OD) [1]: 0.9 OD
ETAG (OD) [3]: 7.7 OD
DGI-2/LDH (OD) (DGI-2 polypeptide [4]): 1.3
B4: DGI-2-40F-3-C10 (peptide, not shown: large carriers)
peptide: WRARSSGYLFALTPNFGVPHPSSALRRMHGLMARDLRPVAAAGAPVPYPDPLEPRP

LDH (OD) [1]: 0.7 OD
B5: DGI-2-40F-3-B72 (peptide, not shown: large carriers)
peptide: PKDGAAFKGSDFIQGGQTVMERAPALWWRDGGGQWEAPSTAAAGAPVPYPDPLEPRP

LDH (OD) [1]: 0.8 OD
B6: DGI-2-40F-3-B95 (peptide, not shown: large carriers)
peptide: DYKTCVSQHVHPLFGEYFYHKVTHMSILSPTFRVTSLYGKAAAGAPVPYPDPLEPRP

LDH (OD) [1]: 0.8 OD
B10: DGI-2-40F-3-B6 (peptide, not shown: large carriers)
peptide: QSNVWVLVGVIMQGVWYQRQHYCVYVMLLSDQVSVLLAVAAAAGAPVPYPDPLEPRP

DGI-2 (OD) (DGI-2 polypeptide [2]): 0.8 OD
LDH (OD) [1]: 0.9 OD
ETAG (OD) [3]: 7.7 OD
DGI-2/LDH (OD) (DGI-2 polypeptide [4]): 0.9
B11: DGI-2-20C-3-B3 (peptide, not shown: large carriers)
peptide: DYKGRTMTSPIMSALPVYDRLHGAIGSRGQNMDAAAGAPVPYPDPLEPRP

LDH (OD) [1]: 0.8 OD
B15: DGI-2-40F-3-B4 (peptide, not shown: large carriers)
peptide: LWLPCGLLVRPAQFYFYFSPLRHFLSSSVGSLSFPLSLLVAAAGAPVPYPDPLEPRP

LDH (OD) [1]: 0.8 OD
B16: DGI-2-40F-3-A8 (peptide, not shown: large carriers)
peptide: GQISLAGVAVCSSERMLLAFSSRVFLPGLKVPVTTSQRGSAAAGAPVPYPDPLEPRP

DGI-2 (OD) (DGI-2 polypeptide [2]): 2.9 OD
LDH (OD) [1]: 0.9 OD
ETAG (OD) [3]: 8.3 OD
DGI-2/LDH (OD) (DGI-2 polypeptide [4]): 3.2
B18: DGI-2-40F-4-E1130 (peptide, not shown: large carriers)
peptide: VCRLCRLCRFSMRCGGLSLVLGSAAAFFCEVFVGFCVAAAGAPVPYPDPLEPRP

LDH (ratio over background) [6]: 1
B20: DGI9-20M-4-E3 (peptide, not shown: large carriers)
peptide: MAGFRGSGLSGYSEARLPRVGAPVPYPDPLEPR

LDH (OD) [1]: 0.8 OD
B21: DGI-2-40F-3-A7 (peptide, not shown: large carriers)
peptide: CAYRWGLFRGPGRVDYDLQVVGIMMWPGPIPDRSSRGSVAAAAGAPVPYPDPLEPRP

LDH (OD) [1]: 0.8 OD
B22: DGI-2-40F-3-D1 (peptide, not shown: large carriers)
peptide: MGQGFHYNRQPYMSHQCYAFTFSTPFLDGDRIPHGVSRGLAAAGAPVPYPDPLEPRP

LDH (OD) [1]: 1 OD
B24: DGI-2-20C-3-D12 (peptide, not shown: large carriers)
peptide: LVIQCSASVVACDLYWNYVGCLAAGAAAGAPVPYPDPLEPRP

LDH (OD) [1]: 0.9 OD
B26: DGI-2-40F-3-D3 (peptide, not shown: large carriers)
peptide: VQFAMTLSSRLWQHARHPLTDDAPPTVSFGTRRETLAGKAAAAGAPVPYPDPLEPRP

LDH (OD) [1]: 0.7 OD
B28: DGI-2-40F-3-B1 (peptide, not shown: large carriers)
peptide: HGTRLRGVDYVMTWAGWQGYSSRKHVQQAVAGSSPGSDELAAAGAPVPYPDPLEPRP

LDH (OD) [1]: 0.8 OD
B32: DGI-2-40F-3-A12 (peptide, not shown: large carriers)
peptide: RRTQPAYRSGADDRTSGFYCYVTSALSAGAWMPFLPRRLAAAAGAPVPYPDPLEPRP
